# Measured values taken from the nanobody polyreactivity screen of Harvey et al. (2022).
# Test: yeast display, Sf9 membrane polyspecificity reagent, FACS + sequencing; frameworks hold sequencing errors
# Outline: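 Synthetic nanobody libraries on Saccharomyces cerevisiae BJ5465 were galactose-induced for 36–48 hours, stained 1 hour at 4 °C with 10% biotinylated, detergent-solubilized Sf9 membrane reagent and enriched on streptavidin microbeads. FACS then separated cells into low and high (top ~1%) gates by anti-HA (expression) and streptavidin (reagent binding) fluorescence. Genes were colony-PCR amplified, MiSeq 2 × 250 sequenced and CDR-length filtered. A clone's polyreactivity label is that of its gate of origin.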
row,Sequence,polyreactivity (PSR sort gate)
1,QVQLVESGGGLVQAGGSLRLSCADSGSTFKYYAMGWYRQAPGKEREFVASINWSGVSTYYADSVKGRFTISRDNPKNTVYLQMNSLKPEDTSVYYCAARVRGKYDYWGQGTQVTVSS,high polyreactivity
2,QVQLVDSGGGLVQAGGSLRLSCAASGITFVFYAMGWYRQAPGKERELVAAISSSGGSTYYADSVKGRFTISRDNAKNTVYLQMNSLKPEDTAVYYCNAKVFSYQGAVRYDYWGQGTQVTVSS,high polyreactivity
3,QVQPVESGGGLVQAGGSLRLSCAASGRTFWYYTMGWYRQAPGKERELVAAITSVGSTYYADSVKGRFTISRDNAKNTVYLQMNSLKPEDTAVYYCAKLYSYTHQSFDHWGQGTQVTVSS,high polyreactivity
4,QVQLVESGGGLVQAGGSLRLSCAASGSTFYYYAMGWYRQAPGKERELVATITSTGRTNYADSVKGRFTISRDNAKNTVYLQMNSLKPEDTAVYYCAALRRIQRPEYGYWGQGTQVTVSS,low polyreactivity
5,QVQLVESGGGLVQAGGSLRLSCAASGYIFSGNAMGWYRQAPGKERELVAAITRSDVNTDYADSVKGRFTISRDNAKNTVYLQMNSLKPEDTAVYSCNTRVRASSVDYDEGDYWGQGTQVTVSS,low polyreactivity
6,QVQLVESGGGLLQAGGSLRLSCAASGFNFGRYAMGWYRQAPGKERELVATISRSGGSTYYADSVKGRFTISRDNSKNTVFLQMNSLKPEDTAVYYCNALILPTKMGYWGQGTQVTVSS,low polyreactivity
7,HVQLLESGGGLVQAGGSLRLSCAASGITFQFYPKGWYRQAPGKERELVAAISYSGGSTYYADSVKGRFTISRDNAKNTVYLQMNSLKAADTAVYYCAAVSYSSRGNYWGQGTQVTVSS,high polyreactivity
8,QVQLVESGGGLVQAGGSLRLSCAASGRTFAYYAMGWYRQAPGKERELVAAISGNGGRTYYADSVKGRFTISRDNAKNTVYLQMNSLKPEDTAVYYCNAAVGYYSYSYYTKVGVDYWGQGSQVTVSS,high polyreactivity
9,QVQLVESGGGLVQAGGSLRLSCAASGSIFNAYAMGWYRQAPGKERELVAVISRPGGSTYYADSVKGRFTISRDNAKNTVYLQMNSLKPEDTAVYYCNVYYPYKHRYYHLDYWGQGTQVTVSS,high polyreactivity
10,QVQLVESGGGLVQAGVSLRLSCAASGFTFWRNAMGWYRQAPGKERELVAAISASGGSTYYADSVKGRFTISRDNAKNTVYLQMNSLKPEDTAVYYCAADTQGFYRYDYWGQGTQVTVSS,low polyreactivity
11,QVQLVESGGGLVQAGVSLRLSCAASGITFPYYTMGCYRQAPGKERELVAAITSGGSTNYADSVKGRFTISRDNAKNTVYLQMNSLKPEDTAVYYCDGVLWLFDYWGQGTQVTVSS,high polyreactivity
12,QLQLVESGGGLVQAGGSLRLSCAASGSTFTDYAMGWYRQAPGKERELVAAISWSGGSTYYADSVKGRFTISRDNAKNTVYLQMNSLKPEDTAVYYCAFRYHGYDYWGQGTQVTVSS,high polyreactivity
13,QVQLVESGGGLVQAGGSLRLSCAASGRIFVQYAMGWNRQAPGKERELVAAISGSGGRTYYADSVKWRFTISRDNAKNTVYLQMNSLKTEDTAVFYCAARSSTGVSFWKPYYYWGQGTQVTLSS,high polyreactivity
14,QVQLVESGGGLVQAGGSLRLSSAASGRILPVNTMGWYRQAPGKERELVAVITRSGGRTYYADSVKGRFTISRDYAKNTVYLQMNSLKPEDTAVYYCAADVGFRWYRYTAGPLEYDYWGQGTQVTVSS,high polyreactivity
15,QVQLVESGGGLVQAGGSLRLSCAASGITFYDYAMGWYRQAPGKERELVAAINSSGVRTYYADSVKGRFTISRDNAKNTVYLQMNSLKPEVTAVYYCAAVRRGPYISRSDMDYYWGQGTQVTVSS,high polyreactivity
16,QVQLVESGGGLVQAGGSLRLICAASGRIFRHYAMGWYRQAPGKEREFVAAISRSGGSTYYADSVKGRFTISRDNAKNTVYLQMHSLKPEDTAVYYCYARHRYTGIRFFQPYDYWGQGTQVTVSS,low polyreactivity
17,QDQLVESGGGLVQAGGSLRISCAASGFTLKKYVMGWYRQAPGKERELVAAISSSGGSTYYADSVKGRFTISRDNAKNTVYLQMNSLKPEDTAVYYCAAVQSYAGFEYGYWGQGTQVTVSS,high polyreactivity
18,QVQLVESGGGLVHAGGSLRLSCAASGSTFRHNAMGWYRQAPGKERELVAAINRSGVSTHYADSVKGRFTISRDNAKNTVYLQMNSLKPEDTAVYYCAVDSYPKSLWYYGGVYSPLDYWGQGTQVTVSS,low polyreactivity
19,QVQLRESGCGLVQAGGNLRLSCAARGNIFDADIMGWYRQAPGKERELVASITDGGSTNYADSVRCRFTISRDNAKNTVYLQMNSLKPEDTAVYYCTAIAYPDIPTYFDHDSDYFYWGQGTQVTVSS,high polyreactivity
20,QVQLVESGGGLVQAGGSLRLSCAASGRTFQGYAMGWYRQATGKERELVAAISRSGGRTYYADSVKGRFTISRDNAKNTVYLQMNSLKPEDTAVYYCATDAFRDYGYWGQGTQVTVSS,high polyreactivity
21,QVQLVESGGGLVQAGGSLRLSCAASGSTFAFYAMGWYRQAAGKERELVAAITWDGGTTYYADSVKGRFTLSRDNAKNTVYLQMNSLKPEDTAVYYCASDYAWFSIYDNVPSAPGYDYWGQGTQVTVSS,low polyreactivity
22,QVQLVESGGGLVQAGGSLRLSCAASGSTFAYYVMGWYRQAPGKERELVAAISRGGRTYYADSVKGRFTISRDNAKNTVYLQMNSLKPEDTAVSYCAKPYHQRSAKVDYWGQGTQVTVSS,low polyreactivity

row,Sequence,polyreactivity (PSR sort gate)
1,QVQLVETGGGLVQAGGSLRLSCAASGSTFGWNAMGWYRQAPGKERELVAAITGGGSTYYADSVKGRFTISRDNAKNTVYLQMNSLKPEDTAVYYCEGDYWGQGTQVTVSS,low polyreactivity
2,QVQLVESGGGLVQAGGSLRLSCAASGRIFNPYAMGWYRQAPGKEREFVAAIRWSSGSTSYADSVKGRFTISRDNAKNTVYLQMNSLKPEDTAVYYCNTRSHSYYTLWGASRPRFDYWGQGTQVTVSS,high polyreactivity
3,QVQLVESGGGLVQAGGSLRLSCAASGSTFGRNAMGWYRQAPGKDRELVAAINSGGGTYYADSVKGRFTISRDNAKNTVYLQMNSLKPEDTAVYDCAAARGYGNYVYWGQGTQVTVSS,low polyreactivity
4,QVQLVESGGGLVQAGGSLRLSCAASGYTFQWYDMGWYRQAPGKERELVASISWRGGSTYYADSVKGRFSISRDNATITVSLQMNSLKPEDTAVYYCAASLWPDYEYDYWGQGTQVTVSS,low polyreactivity
5,QVQLVESGGGLVQAGGSLRFSCAASGSIFDSYAMGWYRHAPGKERELVAAITWSGGITFYADSVKGRYTISRDNAKNTVYLQMNSLKPEDTAVYYCATARSYVGVGGTFVGLYDYWGQGTQVTVSS,low polyreactivity
6,QVQLVESGGGLVQAGGSLRLSCAASGSTFGYAMGWYRQAPGKEREMVAAITSTGGSTYYADSVKGRFTISRDNAKNTVYVQMHSLKPEDTAVYYCAAQVGRGYEVYPVYKYGYWGQGTQVTVSS,high polyreactivity
7,QVQLVESGGGLVQAGGSLRLSCAASGSTFVINAMGWYRQAPGKERELVAAISYDGGGTYYADSVKGRFTISRDNAKNTVYLQMNSLKPEDTAVYYCAAENFYPYTYYASDYWGQGTQVTVSS,high polyreactivity
8,QVQLVESGGGVVQAGGSLGLSCAASGGIFAPYPMGWNRQAPGKERELAAAISSSDGSTYYADSVKGRFTISRDNAKNTVYLQMNSLKTEDTAVYYCAADYREDYGYWGQGTQVTVSS,low polyreactivity
9,QVQLVESGGGLVQPGGSLRLSCAASGRTFGDYVMGWDREAPGKERELVAVITYRGGSTYYADSVKGRFTISRDNAKNTVHLQMNSLKPEDTAVYYCAAAARAGLKRYYYWGQGTQVTVSS,high polyreactivity
10,QVQLVESGVGLVQAGGSLRLSCAASGIIFYEYAMGWNRQAPWKERELVATITSGGSTNYADSVKGRFTISRDNAKNTVYLQMNSLKPEDTAVYYCNADWWWGYGYWGQGTQVTVSS,low polyreactivity
11,QVQLVESGGGLVQAGGRLRLSCAASGFTFYYNDMGWYRQAPGKERELVAAITWSGGSTYYADSVKGRFTISRDNAKNTVYLQMNSLKPEDTAVYYCNARYWVHGYRYYYWGQGTQVTVSS,high polyreactivity
12,QVQLVESGGGLVQAGGSLRLSCAASGSIFGLYAMGWYRPAPGKEREFVATISKSGVSTYYADSVKGRFTISRDNAKNTVYLQMNSLKPEDTALYYCNADISRDNDFDYWGQGTQVTVSS,low polyreactivity
13,QVQLVESGGGLVQAGGSLRLSCAASGRILQFYAMGWYRQAPGKERELVATIRVGGGSTYYADSVKGRFTISRDNAKNTVYLQMYSLKPEDTAVYYCAVRQLYSYPGDRRGYYWGQGTQVTVSS,low polyreactivity
14,QVQLVESGGGLVQAGGSLRLSCAASGSTFSDYVMGWYRQAPGKERELVAAISWSGDRTYYADSVKGRFTISRDNAKNTFYLQMNSLKPEDTAVYYCAAEYAPSDPSYYYGYDYWGQGTQVTVSS,high polyreactivity
15,QVQLVESGGGLVQAGGSLRLSCAASGNIFYYNAMGWYRQAPGKETELVADITWSGGSTYYADSVKGRFTISRDNAKNTVDLQMNSLKPEDTAVYYCADETFGYHRGRIADDYEYWGQGTQVTVSS,low polyreactivity
16,QVQLVESGGGLGQAGVSLRLSCAASGRIFYFNAMGWYRQAPGKEREMVAANSWSGGSTYYADSVKGRFTISRDNAKNTVYLQMNSLKPEDTAVYYCATDSYRQGDYYLGRVDYWGQGTQVTVSS,low polyreactivity
17,QVQLVESGVGLVQAGGSLRLICAASGSIFYPYTMGWYRQAPGKERELVAAITINGGSTYYADSVKGRFTISRDNAKNTVYLQMNSLKPEDTAVYYCAAYYASPRHGYWGQGTQVTVSS,low polyreactivity
18,QVQLVESGGGLVQAGGSLRLSCAASGSTFLRYAMGWYRQAPGKERELVAAISVSGGSTYYADSVKGRFTISRDNAKNTVYLQMNCLKPEDTAVYYCAAVYKRLQPYGYWGQGTQVTVSS,high polyreactivity
19,QVQLVETGGGLFQAGGSLRLSCAASGSTFVYYAMGWYRQPPGKERELVAAISSGGNTKYADSVKGRFTISRDNAKNTFYLQMNSLKPEDTAVYYCARETQSYYDHDYWGQGTQVTLSS,low polyreactivity
20,QVQLVESAGGLVQAGGSLRLSCAAYGRTLAKYAMGWYRQAPGKERELVAAITRDGSTNYADSVKGRFTISRDNAKNTVYLQMNSLKPEDTAVYYCATRSYWYRVYYWGQGTQVTVSS,high polyreactivity
21,QVQLVESGGGLVQAGGSLRLSCAASGITFRRKAMGWYRQAPGKERELVAAISASGTRTYYADSVKGRLTISRDNAKNTVYLQMNSLKPEDTAVYYCATRVTSRSSGFDYWGQGTQVTVSW,high polyreactivity
